Measured values reported in patent US20240190939A1 (SHATTUCK LABS, published 2024).
Each block holds one binder with its values, some of them ahead of it.

How the values were obtained:
[1] = target: T1, mouse PVR on CHO-K1 cells (mouse); experiment: flow cytometry on CHOK1/PVR cells
T1 construct: whole, on cells; also called CHOK1/PVR; mPVR engineered cell line

[2] = target: T2, mouse OX40 on CHO-K1 cells (mouse, UniProt P47741 20-272); experiment: flow cytometry on CHOK1-mOX40 cells
T2 construct: whole, on cells; also called CHOK1-mOX40
T2 sequence (looked up): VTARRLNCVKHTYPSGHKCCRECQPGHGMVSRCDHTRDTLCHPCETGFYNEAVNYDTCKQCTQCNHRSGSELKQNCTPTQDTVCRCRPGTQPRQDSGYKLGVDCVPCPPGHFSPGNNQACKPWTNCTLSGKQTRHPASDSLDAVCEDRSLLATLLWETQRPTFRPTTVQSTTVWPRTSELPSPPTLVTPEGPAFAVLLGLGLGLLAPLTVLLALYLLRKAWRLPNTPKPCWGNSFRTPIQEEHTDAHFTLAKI

CD155PVR-His = target: T3, CD155PVR-His; experiment: ELISA: 'CD115/PVR Capture' as printed (legend: CD155PVR-His), Fc-HRP detection
T3 construct: ELISA capture protein used with both murine and human chimeras; also called CD155-His

OX40-Fc = target: T4, OX40-Fc; experiment: Dual ELISA: OX40-Fc capture, CD155-His detection, 6X His HRP (signal needs both OX40-Fc and CD155-His bound)
T4 construct: Capture protein of the dual ELISA

CD47-His = target: T5, CD47-His; experiment: ELISA: CD47-His capture, IgG detection
T5 construct: ELISA capture protein used with both murine and human chimeras

[3] = target: T6, mouse CD47 on CHO-K1 cells (mouse, UniProt Q61735 19-303); experiment: flow cytometry on CHO-K1 cells expressing murine CD47
T6 construct: whole, on cells; also called mCD47 engineered cell line; mCD47 over-expressing cell line
T6 sequence (looked up): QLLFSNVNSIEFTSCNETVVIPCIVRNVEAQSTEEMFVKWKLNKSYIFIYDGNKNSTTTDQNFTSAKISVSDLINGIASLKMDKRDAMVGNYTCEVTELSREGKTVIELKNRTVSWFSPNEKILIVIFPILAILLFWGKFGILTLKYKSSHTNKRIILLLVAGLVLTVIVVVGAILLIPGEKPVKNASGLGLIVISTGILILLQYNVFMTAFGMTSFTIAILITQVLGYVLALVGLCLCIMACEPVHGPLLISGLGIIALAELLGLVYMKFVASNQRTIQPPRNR

[4] = target: T7, recombinant human CD155PVR (human, UniProt P15151 21-343, limits assumed); experiment: biolayer interferometry (Octet), hPVR; concentration not given
T7 sequence (looked up): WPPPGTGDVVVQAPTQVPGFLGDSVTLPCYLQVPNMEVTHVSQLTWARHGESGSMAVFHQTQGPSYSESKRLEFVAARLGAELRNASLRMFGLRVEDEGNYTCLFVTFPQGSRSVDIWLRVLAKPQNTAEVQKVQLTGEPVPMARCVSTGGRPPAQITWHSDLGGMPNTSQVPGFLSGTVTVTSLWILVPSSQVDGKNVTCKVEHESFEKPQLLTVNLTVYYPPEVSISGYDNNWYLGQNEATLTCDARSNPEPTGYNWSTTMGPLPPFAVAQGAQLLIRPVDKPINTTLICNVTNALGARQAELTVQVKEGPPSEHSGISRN

hCD155-Fc [5] = target: T8, hCD155-Fc (human, UniProt P15151 21-343, limits assumed); experiment: Dual ELISA: hCD155-Fc capture, hLTBR-His detection, 6x His HRP
T8 construct: not shown: Fc, not identified
T8 sequence (looked up): T7 sequence (looked up)

human LTBR-His = target: T9, human LTBR-His (human, UniProt P36941 31-227, limits assumed); experiment: as above
T9 construct: also called hLTBR-His
T9 sequence (P36941 31-227 limits assumed): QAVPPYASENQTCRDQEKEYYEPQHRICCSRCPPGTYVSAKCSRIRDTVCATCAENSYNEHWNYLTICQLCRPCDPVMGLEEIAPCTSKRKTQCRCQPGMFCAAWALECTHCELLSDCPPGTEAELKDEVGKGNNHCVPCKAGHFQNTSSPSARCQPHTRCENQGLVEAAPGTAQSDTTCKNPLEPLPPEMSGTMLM

recombinant human LTbR = recombinant human LTbR (human, UniProt P36941 31-227, limits assumed); experiment: biolayer interferometry (Octet), human LTbR
Sequence of recombinant human LTbR (P36941 31-227 limits assumed): as above

hCD155-Fc [6] = target: T8, hCD155-Fc; experiment: ELISA as printed: CD155-Fc capture, goat anti-hOX40L detection, anti-goat HRP (legend says CD155PVR-His capture, IgG detection)
TNFRSF4 = target: T10, TNFRSF4; experiment: microarray of about 6,000 human membrane proteins
T10 construct: also called TNF Receptor Superfamily Member 4
T10 chain: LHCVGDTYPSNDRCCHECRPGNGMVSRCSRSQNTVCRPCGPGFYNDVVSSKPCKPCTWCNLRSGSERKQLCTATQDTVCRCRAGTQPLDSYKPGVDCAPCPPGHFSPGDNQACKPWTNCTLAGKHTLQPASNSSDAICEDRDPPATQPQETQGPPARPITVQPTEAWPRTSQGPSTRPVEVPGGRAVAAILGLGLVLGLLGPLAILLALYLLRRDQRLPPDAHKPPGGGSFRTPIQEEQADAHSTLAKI

NECTIN4 = target: T11, NECTIN4 (human, UniProt Q96NY8); experiment: microarray of about 6,000 human membrane proteins
T11 construct: on the microarray of human membrane proteins; also called Nectin Cell Adhesion Molecule 4
T11 sequence (looked up): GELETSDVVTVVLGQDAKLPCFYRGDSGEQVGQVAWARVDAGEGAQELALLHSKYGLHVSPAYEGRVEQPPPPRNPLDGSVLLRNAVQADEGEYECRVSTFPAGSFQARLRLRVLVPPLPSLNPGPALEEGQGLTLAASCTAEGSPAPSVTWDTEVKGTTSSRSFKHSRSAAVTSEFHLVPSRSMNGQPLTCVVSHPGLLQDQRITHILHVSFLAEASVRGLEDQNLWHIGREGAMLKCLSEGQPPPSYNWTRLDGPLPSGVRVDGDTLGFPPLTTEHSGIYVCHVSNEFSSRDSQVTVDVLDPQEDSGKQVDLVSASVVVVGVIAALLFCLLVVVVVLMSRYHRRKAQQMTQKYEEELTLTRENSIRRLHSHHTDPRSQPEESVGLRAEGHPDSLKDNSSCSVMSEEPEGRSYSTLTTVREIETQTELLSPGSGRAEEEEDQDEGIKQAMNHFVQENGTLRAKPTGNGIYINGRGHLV

Galectin-1 = Galectin-1 (human, UniProt P09382 2-135, limits assumed); experiment: microarray of about 6,000 human membrane proteins
Sequence of Galectin-1 (P09382 2-135 limits assumed): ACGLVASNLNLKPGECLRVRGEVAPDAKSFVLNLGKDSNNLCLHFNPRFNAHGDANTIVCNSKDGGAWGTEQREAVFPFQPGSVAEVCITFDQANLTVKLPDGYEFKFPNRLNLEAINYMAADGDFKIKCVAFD

PVR = target: T12, PVR (human, UniProt P15151); experiment: microarray of about 6,000 human membrane proteins
T12 construct: on the microarray of human membrane proteins; also called Poliovirus Receptor
T12 sequence (looked up): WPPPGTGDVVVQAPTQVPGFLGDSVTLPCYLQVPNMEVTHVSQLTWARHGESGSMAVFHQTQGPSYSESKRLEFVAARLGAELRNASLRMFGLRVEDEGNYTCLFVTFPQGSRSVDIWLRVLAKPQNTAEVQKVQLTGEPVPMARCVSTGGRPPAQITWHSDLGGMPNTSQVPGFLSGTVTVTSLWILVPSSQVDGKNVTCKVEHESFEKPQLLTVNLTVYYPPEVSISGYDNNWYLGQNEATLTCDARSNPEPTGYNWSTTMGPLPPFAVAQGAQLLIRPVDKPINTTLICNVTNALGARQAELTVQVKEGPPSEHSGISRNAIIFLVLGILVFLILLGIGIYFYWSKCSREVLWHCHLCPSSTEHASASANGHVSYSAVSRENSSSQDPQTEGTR

EC50 [1]: 4.63 nM
EC50 [2]: 1.7 nM
EC50 (read off the curve) (CD155PVR-His): ~4 nM
EC50 (read off the curve) (OX40-Fc): ~8 nM
B1: murine TIGIT-Fc-OX40L chimeric protein (Fc fusion)
chain 1: TIDTKRNISAEEGGSVILQCHFSSDTAEVTQVDWKQQDQLLAIYSVDLGWHVASVFSDRVVPGPSLGLTFQSLTMNDTGEYFCTYHTYPGGIYKGRIFLKVQESSDDRNGLAQFQTAPLG
chain 2: SSSPAKDPPIQRLRGAVTRCEDGQLFISSYKNEYQTMEVQNNSVVIKCDGLYIIYLKGSFFQEVKIDLHFREDHNPISIPMLNDGRRIVFTVVASLAFKDKVYLTVNAPDTLCEHLQINDGELIVVQLTPGYCAPEGSYHSTVNQVPL

EC50 (read off the curve) (CD47-His): ~4 nM
EC50 [3]: 18 nM
B2: murine CD172a(SIRPα)-Fc-LIGHT chimeric protein (Fc fusion)
chain 1: KELKVTQPEKSVSVAAGDSTVLNCTLTSLLPVGPIRWYRGVGPSRLLIYSFAGEYVPRIRNVSDTTKRNNMDFSIRISNVTPADAGIYYCVKFQKGSSEPDTEIQSGGGTEVYVLAKPSPPEVSGPADRGIPDQKVNFTCKSHGFSPRNITLKWFKDGQELHPLETTVNPSGKNVSYNISSTVRVVLNSMDVNSKVICEVAHITLDRSPLRGIANLSNFIRVSPTVKVTQQSPTSMNQVNLTCRAERFYPEDLQLIWLENGNVSRNDTPKNLTKNTDGTYNYTSLFLVNSSAHREDVVFTCQVKHDQQPAITRNHTVLGFAHSSDQGSMQTFPDNNATHNWN
chain 2: LHQRLGDIVAHLPDGGKGSWEKLIQDQRSHQANPAAHLTGANASLIGIGGPLLWETRLGLAFLRGLTYHDGALVTMEPGYYYVYSKVQLSGVGCPQGLANGLPITHGLYKRTSRYPKELELLVSRRSPCGRANSSRVWWDSSFLGGVVHLEAGEEVVVRVPGNRLVRPRDGTRSYFGAFMV

binding result [4]: binds
binding result (hCD155-Fc [5]): binds
binding result (human LTBR-His): binds
binding result (recombinant human LTbR): binds
B3: human TIGIT-Fc-LIGHT chimeric protein (Fc fusion)
chain: MMTGTIETTGNISAEKGGSIILQCHLSSTTAQVTQVNWEQQDQLLAICNADLGWHISPSFKDRVAPGPGLGLTLQSLTVNDTGEYFCIYHTYPDGTYTGRIFLEVLESSVAEHGARFQIPSKYGPPCPPCPAPEFLGGPSVFLFPPKPKDQLMISRTPEVTCVVVDVSQEDPEVQFNWYVDGVEVHNAKTKPREEQFNSTYRVVSVLTVLHQDWLSGKEYKCKVSSKGLPSSIEKTISNATGQPREPQVYTLPPSQEEMTKNQVSLTCLVKGFYPSDIAVEWESNGQPENNYKTTPPVLDSDGSFFLYSRLTVDKSRWQEGNVFSCSVLHEALHNHYTQKSLSLSLGKIEGRMDLQLHWRLGEMVTRLPDGPAGSWEQLIQERRSHEVNPAAHLTGANSSLTGSGGPLLWETQLGLAFLRGLSYHDGALVVTKAGYYYIYSKVQLGGVGCPLGLASTITHGLYKRTPRYPEELELLVSQQSPCGRATSSSRVWWDSSFLGGVVHLEAGEKVVVRVLDERLVRLRDGTRSYFGAFMV
notes: also called hTIGIT-Fc-LIGHT; hTIGIT-1-Fc-LIGHT

binding result [4]: binds
binding result (hCD155-Fc [6]): binds
binding result (TNFRSF4): binds
binding result (NECTIN4): binds
binding result (Galectin-1): binds
binding result (PVR): binds
B4: human TIGIT-Fc-OX40L chimeric protein (Fc fusion)
chain: MMTGTIETTGNISAEKGGSIILQCHLSSTTAQVTQVNWEQQDQLLAICNADLGWHISPSFKDRVAPGPGLGLTLQSLTVNDTGEYFCIYHTYPDGTYTGRIFLEVLESSVAEHGARFQIPSKYGPPCPPCPAPEFLGGPSVFLFPPKPKDQLMISRTPEVTCVVVDVSQEDPEVQFNWYVDGVEVHNAKTKPREEQFNSTYRVVSVLTVLHQDWLSGKEYKCKVSSKGLPSSIEKTISNATGQPREPQVYTLPPSQEEMTKNQVSLTCLVKGFYPSDIAVEWESNGQPENNYKTTPPVLDSDGSFFLYSRLTVDKSRWQEGNVFSCSVLHEALHNHYTQKSLSLSLGKIEGRMDQVSHRYPRIQSIKVQFTEYKKEKGFILTSQKEDEIMKVQNNSVIINCDGFYLISLKGYFSQEVNISLHYQKDEEPLFQLKKVRSVNSLMVASLTYKDKVYLNVTTDNTSLDDFHVNGGELILIHQNPGEFCVL
notes: also called hTIGIT-Fc-OX40L
